B1: mouse anti-canine PD-L1 monoclonal antibody 4F9 (antibody, V domains shown)
VH: EVQLVESGGGLVKPGGSLKLSCAASGFTFSSYAMSWVRQTPDKRLEWVATISDGGSYTHYPDNLMGRFTISRDNAKNNLYLQMSHLKSDDTAMYYCARESYDGYYVANWGQGTLVTVSA
VL: DIVLTQSPATLSVNPGDSVSLSCRASQSISNNLHWYQQKSHESPRLLIKYASQSISGIPSRFSGSGSGTDFTLSINSVETEDFGMYFCQQSNSWPQTFGGGTKLEIK
notes: also called mAb 4F9
B2: mouse anti-canine PD-L1 monoclonal antibody 5F12 (antibody, V domains shown)
VH: QVQLQQSGPELVKPGASVKISCKASGYTFTDYYMNWVKQRPGQGLEWIGWIFPGSGATYYNERFMGKATLTVDKSSNTAYMLFSSLTSEDSAVYFCLRSDWDVGDFWGQGTTLTVSS
VL: DIVMTQAAFSNPVTLGTSASISCRSSRSLLHTNGITYLSWFLQKPGQSPQLLIYQMSNLASGVPDRFSSSGSGTDFTLRISRVEAEDVGIYYCAQTLGLPRTFGGGTKLEIK
notes: also called mAb 5F12; Anti-PDL-1 5F12

Tests used:
[1] = target: T1, canine PD-L1 extracellular domain-human IgG1 Fc fusion protein (canine); assay: cell-based ELISA (CELISA): mAb pre-incubated with cPD-L1-hFc, then added to CHO cells expressing canine PD-1; bound cPD-L1-hFc detected with anti-human Fc-HRP, OD 450-620 nm; blocked partner: canine PD-1
T1 construct: Expressed in HEK 293 cells and purified on Protein A; also called canine PD-L1-hFc fusion protein; cPD-L1-hFc
Protocol: Ligand blockade was confirmed using this assay in conjunction with canine PD-L1/h Fec protein as follows: [0233] 1. Seed cPD-1 CHO cells in 96-well plates and grow the cells to 95-100% confluent. [0234] General guidelines for plating CHO cells, [0235] on day −3: […] (1×10⁵c/mL) [0236] −2: 2×10⁴ c/well ([…]) [0237] −1: 4×10⁴ c/well (4×10⁵ c/mL) [0238] 2. 3-fold dilute anti-cPDL1 mAbs in CHO media, starting at 30 μg/mL, 100 μL/well. Add cPD-L1-hFc to 4 μg/ml in CHO media, 100 μL/well, co-incubate in a dilution plate at 37° C., 5% CO₂ with shaking for 60 min. [0239] 3. Aspirate cell culture media from the cell coated plates, wash the plates 3×PBS+0.05% Tween20 and 1×CHO media. [0240] 4. Add the co-incubated cPD-L1 mAbs/PD-L1 Fc from the dilution plate to the cell coated plate. 100 uL/well. Incubate at 37° C., 5% CO₂ with shaking for 60 min. [0241] 5. Wash the plates 6×PBS+0.05% Tween 20 (using manual wash protocol). [0242] 6. Add Anti-Human Fc-HRP (Calbiochem) (1:2500) in CHO media, 100 ul/well, incubate 30-60 min at 37° C./5% CO₂. [0243] 7. Wash the plates 5×PBS+0.05% Tween20 (using manual wash protocol). [0244] 8. Add 100 μl/well TMB mircowell substrate. Incubate at room temp for 10 minutes. Use one step substrate from Pierce. [0245] 9. Stop with 100 μl/well 1.5M Phosphoric acid. [0246] 10. Measure A450-A620 on the ELISA reader.

[2] = target: T1, canine PD-L1 extracellular domain-human …; assay: ELISA, plate coated with canine PD-L1-hFc, two-fold dilutions of mAb, detection with HRP goat anti-mouse IgG, OD 650/490
Protocol: Hybridoma cells in the cell chamber were expanded to approximately 2.5×10⁷ cells/mL over 3-7 days. Then, 10 mL of cell suspension was harvested from the cell chamber and replaced with fresh media to allow for re-expansion of cells and subsequent harvests. This procedure was repeated as necessary to obtain adequate amounts of mAb from each hybridoma clone. Harvested cell suspensions were centrifuged and the supernatants were filtered through 0.2 micron filter membranes. For antibody purification, each clone's supernatant was purified using a Protein G Sepharose 4 Fast flow 5 mL column (GE Healthcare) by gravity flow. After washing with Tris-EDTA (TE) buffer pH 8.0, bound antibodies were eluted using 0.1 M glycine buffer, pH 2.7, followed by pH neutralization using 1 M Tris, pH 8.0. Antibodies were concentrated and buffer exchanged into phosphate-buffered saline (PBS) using Centriprep YM-10.10 kDa NMWL centrifugal filter units (Millipore). Antibody concentrations were quantified using spectrophotometry. […] The color reaction is allowed to develop for 5-20 minutes at 37° C. prior to measuring absorbance at 650 nm.

T1 sequence (chain, as listed by the source limits assumed): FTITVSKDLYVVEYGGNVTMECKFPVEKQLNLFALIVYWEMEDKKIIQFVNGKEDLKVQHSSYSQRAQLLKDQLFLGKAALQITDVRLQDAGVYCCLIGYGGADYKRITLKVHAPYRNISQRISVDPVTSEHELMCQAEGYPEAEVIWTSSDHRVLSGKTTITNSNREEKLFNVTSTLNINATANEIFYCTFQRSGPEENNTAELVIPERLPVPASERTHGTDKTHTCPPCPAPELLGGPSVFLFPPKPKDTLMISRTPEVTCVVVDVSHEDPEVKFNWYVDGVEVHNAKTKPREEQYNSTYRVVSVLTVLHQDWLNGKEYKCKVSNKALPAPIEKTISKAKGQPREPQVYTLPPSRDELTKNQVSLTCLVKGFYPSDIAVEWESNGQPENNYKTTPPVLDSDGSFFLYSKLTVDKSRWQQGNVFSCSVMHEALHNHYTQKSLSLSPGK

Binder	IC50 (read off the curve) [1]	binding result [2]
B1	~20 nM	–
B2	–	binds

From US20200109212A1 (INTERVET, published 2020)
